The record followed here is patent publication CN115677856A (DONGGUAN PENGZHI BIOTECHNOLOGY CO LTD, dated 2023).

For the test, the target named is 人IgM (human, UniProt P01871 1-453). In words: AMC sensor kinetics, antibody captured on the sensor, human IgM in graded dilutions in solution.
Sequence of 人IgM (P01871 other isoform, or with tags, fused parts or gaps): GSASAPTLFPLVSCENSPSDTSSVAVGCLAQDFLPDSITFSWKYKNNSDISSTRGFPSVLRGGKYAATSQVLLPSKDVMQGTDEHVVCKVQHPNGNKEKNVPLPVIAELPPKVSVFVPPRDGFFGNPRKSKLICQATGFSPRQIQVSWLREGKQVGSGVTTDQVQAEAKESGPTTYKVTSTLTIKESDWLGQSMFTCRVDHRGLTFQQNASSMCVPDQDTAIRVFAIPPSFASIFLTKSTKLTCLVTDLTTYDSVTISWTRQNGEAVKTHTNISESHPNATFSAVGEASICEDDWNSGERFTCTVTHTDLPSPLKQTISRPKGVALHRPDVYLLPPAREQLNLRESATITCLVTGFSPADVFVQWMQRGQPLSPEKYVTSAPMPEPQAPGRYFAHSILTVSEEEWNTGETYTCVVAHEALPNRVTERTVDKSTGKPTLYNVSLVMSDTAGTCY

B1: Ig-M-9G1RMb1抗体 (antibody, mouse IgG1, kappa, V domains shown)
VH: EVQLQQSGAELVKPGASVKLSCTTSGFSIKDAYIHWVKQRPKQGLEWIGRIDPANGYTKYDPKFQGKATITADKSSSTAYMQLRSLTSEDSAVYYCAREPLPHYYAMDYWGQGTSVTVSS
VL: DIQMTQSPSSLSASLGERVSLTCRASQEISGFLSWLQQKPDGTIKRLIYAASTLDSGVPKRFSGSTSGSDYRLKISSLESEDFADYYCIQYTSFPLTFGAGTKLELKR
notes: It was detected with goat anti-mouse IgG-HRP and captured on AMC sensors; also called 抗人IgM抗体
With B1, the equilibrium dissociation constant (Kd) came out at 3.02 pM, the dissociation rate constant (koff) came out at 2.84e-05 s⁻¹ and the association rate constant (kon) was 9.41e+06 M⁻¹ s⁻¹.

B2: Ig-M-9G1RMb2抗体 (antibody, V domains shown)
VH: EVQLQQSGAELVKPGASVKLSCTTSGFSIKDAYIHWVKQRPKQGLEWIGRIDPANGYTKYDPKFQGKATITADKSSSTAYMQLRSLTSEDSAVYYCAREPLPHYYAMDYWGQGTSVTVSS
VL: DIQMTQSPSSLSASLGERVSLTCRASQEISGFLSWLQQKPDGTIKRLIYAASTLDSGVPKRFSGSTSGSDYRLKISSLESEDFADYYCLQYTSFPLTFGAGTKLELKR
Molecule B2 returned a Kd of 4.27 pM, a koff of 6.07e-05 s⁻¹ and a kon of 1.42e+07 M⁻¹ s⁻¹.

What is called Kd is the concentration at which binding is half-saturated. A high value points to lower affinity. What is called koff is the rate constant with which the complex falls apart. Read a high koff as fast dissociation. As usually defined, the kon is the second-order rate constant of association. A higher kon goes with faster complex formation.
